Experimental data: US20090053213A1

Key:
[1] = molecular target: human GM-CSF (human) (UniProt P04141); test: cell-based or functional assay
[2] = molecular target: macaca mulatta (rhesus) GM-CSF (Macaca mulatta (rhesus)); test: cell-based or functional assay
[3] = molecular target: human GM-CSF (human) (UniProt P04141); test: FACS receptor inhibition assay: inhibition of binding of 0.5 µg/ml biotinylated GM-CSF to GM-CSF receptor alpha on CHO-GMRa#11 cells
[4] = molecular target: human GM-CSF receptor alpha chain (human) (UniProt P15509); test: FACS on CHO-GMRa#11 cells, MAB1006 at 1 µg/ml, R-PE anti-mouse secondary, FL2 channel
human GM-CSF receptor alpha chain (human), sequence (P15509 23-400): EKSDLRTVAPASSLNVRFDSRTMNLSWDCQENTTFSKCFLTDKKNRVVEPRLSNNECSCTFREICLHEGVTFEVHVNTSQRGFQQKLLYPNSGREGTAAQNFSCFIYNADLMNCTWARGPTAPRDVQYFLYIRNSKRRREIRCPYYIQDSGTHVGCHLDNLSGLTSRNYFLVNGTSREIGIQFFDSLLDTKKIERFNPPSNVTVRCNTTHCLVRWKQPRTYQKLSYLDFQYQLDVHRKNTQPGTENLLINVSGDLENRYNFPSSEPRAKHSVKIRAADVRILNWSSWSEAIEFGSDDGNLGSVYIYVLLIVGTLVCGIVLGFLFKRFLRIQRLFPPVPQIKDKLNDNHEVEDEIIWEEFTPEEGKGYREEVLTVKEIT

human GM-CSF (human), sequence (P04141 18-144): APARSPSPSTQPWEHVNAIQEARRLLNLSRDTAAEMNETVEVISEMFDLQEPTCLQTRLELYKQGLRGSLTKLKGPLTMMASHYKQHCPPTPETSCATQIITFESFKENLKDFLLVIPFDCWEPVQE

IC50 (pM) in TF-1 proliferation assay, human GM-CSF 0.25 ng/ml [1]	IC50 (pM) in TF-1 proliferation assay, human GM-CSF (E. coli) [1]	IC50 (pM) in TF-1 proliferation assay, human GM-CSF (HEK293) [1]	IC50 x-fold improved compared to BVD2-21C11, TF-1 proliferation assay [1]	IC50 (pM) in TF-1 proliferation assay, macaca GM-CSF (HEK293) [2]	% inhibition at 5 µg/ml antibody [3]	median fluorescence value (MFL value) [4]	Substance
4320 pM	625 pM	54 pM	1.5 fold	190 pM	50%		MAB215 (antibody)
						157	murine IgG MAB1006 (antibody)
